This note sets out measurements from the Immune Epitope Database (IEDB).

In one test the target is HLA-B*07:02. The test is described as follows: IEDB peptide-MHC binding, purified MHC/direct/fluorescence; filed as Kd, often an IC50 or EC50 that approximates it; ≥ and ≤ were set here for values at or beyond the usual limits of such assays. The note with it: source organism: Orthohantavirus puumalaense.
In test [1] the target is HLA-A*02:19. Described as above.
For test [2], the target named is HLA-A*02:16. Described as above.
Another test concerns the target HLA-A*02:11. The test is described as above. The note with it: source organism: Limestone Canyon virus.
A further test concerns the target HLA-A*29:02. The test is described as above. The note with it: source organism: Limestone Canyon virus.
The target of test [3] is HLA-A*02:03. The description is as above.
For test [4], the target named is HLA-A*03:01. The test is described as above.
Test [5] has as its target HLA-A*02:12. The test is described as above.
The next test deals with HLA-A*68:02. The test is described as above. The conditions noted are these: source organism: Limestone Canyon virus.
A further test addresses HLA-A*24:03. The test is described as above.
In the next test the target is HLA-A*69:01. The experiment in a line: IEDB peptide-MHC binding, purified MHC/competitive/fluorescence; filed as Kd, often an IC50 or EC50 that approximates it; ≥ and ≤ were set here for values at or beyond the usual limits of such assays.
The target in a further test is HLA-B*27:03. Described as above.
The next test addresses HLA-B*39:01. Described as above.
The next test has as its target HLA-A*26:01. The test is described as above. The conditions noted are these: source organism: Orthohantavirus puumalaense.
A further test has as its target HLA-B*15:01. Described as above.
The next test deals with HLA-B*46:01. The description is as above.
The target in the next test is HLA-B*15:17. Described as above.
A further test deals with HLA-B*51:01. Described as above.
The target in a further test is HLA-B*18:01. The test is described as above.
A further test addresses HLA-B*57:01. The test is described as above.
Another test concerns the target HLA-B*35:01. Described as above. The note with it: source organism: Orthohantavirus puumalaense.
In another test the target is HLA-A*02:01. Described as above.
The target of test [6] is HLA-A*02:19. Described as above. The note with it: source organism: Human immunodeficiency virus 1.
The target of test [7] is HLA-A*02:16. The test is described as above.
A further test addresses HLA-A*02:06. The test is described as above. The note with it: source organism: Human immunodeficiency virus 1.
Test [8] deals with HLA-A*02:03. The test is described as above. The note with it: source organism: Human immunodeficiency virus 1.
Test [9] concerns the target HLA-A*02:12. The description is as above. The note with it: source organism: Human immunodeficiency virus 1.
The target of another test is HLA-B*08:01. The description is as above.
The target in a further test is HLA-A*11:01. The test is described as follows: IEDB peptide-MHC binding, purified MHC/direct/fluorescence; filed as Kd, often an IC50 or EC50 that approximates it; ≥ and ≤ were set here for values at or beyond the usual limits of such assays.
In the next test the target is HLA-A*31:01. The experiment in a line: IEDB peptide-MHC binding, purified MHC/competitive/fluorescence; filed as Kd, often an IC50 or EC50 that approximates it; ≥ and ≤ were set here for values at or beyond the usual limits of such assays.
Another test deals with HLA-C*03:03. The experiment in a line: IEDB peptide-MHC binding, purified MHC/direct/fluorescence; filed as Kd, often an IC50 or EC50 that approximates it; ≥ and ≤ were set here for values at or beyond the usual limits of such assays. The note with it: source organism: Mycobacterium tuberculosis C.
For test [10], the target named is HLA-A*03:01. The experiment in a line: IEDB peptide-MHC binding, purified MHC/competitive/fluorescence; filed as Kd, often an IC50 or EC50 that approximates it; ≥ and ≤ were set here for values at or beyond the usual limits of such assays. The conditions noted are these: source organism: Escherichia coli 536.
The target of another test is HLA-B*83:01. The description is as above. The conditions noted are these: source organism: Zaire ebolavirus.
A further test deals with HLA-B*15:42. The test is described as above. The conditions noted are these: source organism: Zaire ebolavirus.
Another test deals with HLA-B*45:06. Described as above. The conditions noted are these: source organism: Zaire ebolavirus.
[11] abbreviates: source organism: Limestone Canyon virus.
[12] abbreviates: source organism: Orthohantavirus puumalaense.
The mark [13] stands for this setting: source organism: Human immunodeficiency virus 1.
[14] abbreviates: source organism: Escherichia coli.
The mark [15] stands for this setting: source organism: Vibrio vulnificus.
The mark [16] stands for this setting: source organism: Mycobacterium tuberculosis C.
The mark [17] stands for this setting: source organism: Escherichia coli 536.
Setting [18] is: source organism: Zaire ebolavirus.
Setting [19] is: source organism: Influenza A virus (A/Belfast/53582/2004(H3N?)).

A value given as a limit tells only on which side of the number the result lay.

By Kd is commonly meant the equilibrium constant for the complex coming apart. Take SPVMGVIGF: the Kd with HLA-B*07:02 was 60.7 nM; in the test with HLA-A*02:19 [1] (setting [11]), at least 20000 nM; in the test with HLA-A*02:16 [2] (setting [11]) it was at least 20000 nM; with HLA-A*02:11, at least 20000 nM; with HLA-A*29:02, at least 20000 nM; with HLA-A*02:03 [3] (setting [11]), at least 20000 nM. The Kd in the test with HLA-A*03:01 [4] (setting [11]), in the test with HLA-A*02:12 [5] (setting [11]), with HLA-A*68:02, in the test with HLA-A*24:03 (setting [11]), with HLA-A*69:01 (setting [12]) and with HLA-B*27:03 (setting [12]) was at least 20000 nM throughout. Also, the Kd in the test with HLA-B*39:01 (setting [12]), with HLA-A*26:01, in the test with HLA-B*15:01 (setting [12]), in the test with HLA-B*46:01 (setting [12]), in the test with HLA-B*15:17 (setting [12]) and with HLA-B*51:01 (setting [12]) was at least 20000 nM each time. The dissociation constant (Kd) was at least 20000 nM in the test with HLA-B*18:01 (setting [12]), at least 20000 nM in the test with HLA-B*57:01 (setting [12]), 0.5 nM with HLA-B*35:01 and at least 20000 nM with HLA-A*02:01 (setting [12]).

SLVKHHMYV: the Kd in the test with HLA-A*02:19 [6] is 17.2 nM; with HLA-A*69:01 (setting [13]), 146 nM; with HLA-A*02:16 [7] (setting [13]), 0.572 nM; with HLA-A*02:06, at most 0.1 nM; in the test with HLA-A*02:03 [8], 1.88 nM; with HLA-A*02:12 [9], 9.35 nM. Moreover, the Kd with HLA-A*02:01 (setting [13]) is 7.33 nM.

Consider HLAGYSGVL, for which the Kd came out at 2.5 nM in the test with HLA-B*39:01 (setting [14]), 354 nM with HLA-B*15:01 (setting [14]) and 1900 nM with HLA-B*08:01 (setting [14]).

Consider SSGVFHSYK, for which the results for the equilibrium dissociation constant (Kd) with HLA-A*03:01 [4] (setting [15]), with HLA-A*11:01 (setting [15]) and with HLA-A*31:01 (source organism: Vibrio vulnificus YJ016) were 9.7 nM, at most 1 nM and 3.5 nM, respectively.

KTALTGAMR: the Kd with HLA-A*11:01 (source organism: Yellow fever virus) worked out at 15.1 nM; with HLA-A*31:01 (source organism: Yellow fever virus 1899/81) it was 16 nM.

Regarding VVYKTGAIR, the Kd with HLA-A*03:01 [4] (source organism: Mycobacterium leprae) stood at 751 nM; with HLA-A*31:01 (setting [16]), 59.4 nM.

With TMDPSVRVL, the values for the Kd with HLA-C*03:03, with HLA-A*02:16 [7] (setting [16]) and with HLA-A*02:01 (setting [16]) were 30 nM, 217 nM and 41.4 nM, respectively.

As for KIPATVIAR, the Kd in the test with HLA-A*31:01 (setting [17]) came to 34.4 nM; with HLA-A*03:01 [10], 31 nM.

In the case of FTFDLTALK, the Kd with HLA-A*02:19 [1] (setting [18]) was at least 20000 nM; with HLA-A*02:16 [2] (setting [18]), at least 20000 nM; with HLA-A*02:03 [3] (setting [18]) it was at least 20000 nM; in the test with HLA-A*03:01 [4] (source organism: Ebola virus - Gabon (1994-1997)), 229 nM; in the test with HLA-A*02:12 [5] (setting [18]), at least 20000 nM; in the test with HLA-A*24:03 (setting [18]), at least 20000 nM. In addition, the Kd in the test with HLA-B*83:01 is at least 5000 nM; with HLA-B*15:42 it was at least 5000 nM; with HLA-B*27:03 (setting [18]) it was at least 20000 nM; with HLA-B*39:01 (setting [18]) it was at least 20000 nM; with HLA-A*31:01 (setting [18]) it was at least 20000 nM; with HLA-B*15:01 (setting [18]), at least 20000 nM. The dissociation constant Kd with HLA-B*46:01 (setting [18]), in the test with HLA-B*15:17 (setting [18]), with HLA-B*51:01 (setting [18]), with HLA-B*18:01 (setting [18]), with HLA-B*57:01 (setting [18]) and with HLA-A*02:01 (setting [18]) was at least 20000 nM throughout. In the test with HLA-B*45:06, this sequence registered a dissociation constant Kd of at least 5000 nM.

On to WILDRLFFK, for which the dissociation constant Kd in the test with HLA-A*03:01 [4] (setting [19]) stood at 52.7 nM; with HLA-A*11:01 (setting [19]), 2.1 nM; with HLA-A*31:01 (source organism: Influenza A virus (A/Memphis/1/1978(H1N1))), 244 nM.

Take LIAVPHTKL: in the test with HLA-B*08:01 (setting [17]), the dissociation constant (Kd) was at least 20000 nM.
